Data as given in publication PMC3589417.

Biological target: 14-3-3ε (UniProt P62258)
Experiment: anti-FLAG co-IP of HA-TAK1, immunoblot
Details: reference: wild type

Chain of UniProt P62258 (P62258 whole entry, looked up): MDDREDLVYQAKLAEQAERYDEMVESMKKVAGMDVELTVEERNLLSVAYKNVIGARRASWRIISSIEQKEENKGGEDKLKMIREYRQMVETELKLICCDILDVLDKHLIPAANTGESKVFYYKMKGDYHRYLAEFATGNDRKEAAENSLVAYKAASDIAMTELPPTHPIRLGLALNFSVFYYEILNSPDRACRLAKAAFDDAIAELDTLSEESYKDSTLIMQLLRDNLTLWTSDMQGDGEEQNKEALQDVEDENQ

TAK1 (MAP3K7) (from UniProt O43318-2) S192A
binding against the reference (sites S192): weaker

TAK1 (MAP3K7) (from UniProt O43318-2) T184A
binding against the reference (sites T184): weaker

TAK1 (MAP3K7) (from UniProt O43318-2) T187A
binding against the reference (sites T187): weaker
